This data set is described as follows: amyloid nucleation score (Sup35N fusion, yeast selection) (log enrichment); library NNK1; higher = more nucleation; inactive = no reads after selection. The essentials: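 On medium lacking adenine and uracil, psi-negative yeast expressing peptides of 20 random codons fused to Sup35N were grown 7 days at 30°C after a 24-hour induction with 100 μM copper sulfate. Illumina sequencing of input and output plasmid inserts gave the reads, and sequences under 100 input reads were excluded. The nucleation score is the DiMSum log enrichment of output over input reads, centred on the mode score of non-aggregating sequences.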

The values that follow come from the supplement of paper PMC12042874.

± gives the uncertainty stated by the source.

For the substance HLSMFDCVYSF, the amyloid nucleation score came to 1.26 ± 0.9.
As for LMYQSFRLTGSYVVIFLYES, the figure is -0.543 ± 1.1; as for NVLWIPSSGISSVRLEGIAM, 0.393 ± 0.46; as for YGYLTITPVQVYIQRTSTWT, 4.16 ± 0.12.
To CVLPYCS belongs 0.297 ± 0.54.
To NWILSLAGFYRSSKVSSCTT belongs 0.41 ± 0.67.
Consider HFYSGECVFRGACRYQRRGH, for which the amyloid nucleation score worked out at 0.402 ± 1.4.
As for IIGQLRI, the figure is 0.454 ± 0.66.
NGFLHIRLRISALCELL showed an amyloid nucleation score of 0.137 ± 0.57.
As for RYYNFFMGLTWG, the figure is -0.395 ± 0.48.
Substance EIASLTRCYRSYRIVSWLRG had an amyloid nucleation score of 0.341 ± 0.37.
LLRGSCFMCSLLDYALVKEG showed an amyloid nucleation score of 3.84 ± 0.1.
As for LYGFLICLCDSYVRGH, the figure is 0.213 ± 0.49; as for MHRESR, 1.2 ± 0.36; as for VLSVNAV, -0.482 ± 0.51.
Turning to ELGTVFGLTYYTMTDYVPMT, the amyloid nucleation score is 0.483 ± 0.22.
Consider FCNNAPRQEWPILN, for which the amyloid nucleation score is -1.31 ± 0.49.
For YWFDYINPLMRSFAHATAIS, the amyloid nucleation score was 0.74 ± 0.9.
In turn, LIVIPKGG had an amyloid nucleation score of 1.58 ± 0.51.
SQFISK displayed an amyloid nucleation score of 1.14 ± 0.52.
On to VDNSCFRGT, for which the amyloid nucleation score was -0.391 ± 0.66.
As for AGSLWFIWGLLSALN, the figure is -0.893 ± 0.92.
To GPHLIKVCFSEPMGFKVFLL belongs 2.12 ± 0.14; to GTLHSKCRGICLDCVAIVIL, -0.092 ± 0.39; to QLCGVVK, -1.07 ± 1.6.
As for LETINSSGRHF, the figure is 2.74 ± 0.091; as for MVFSLSCFKSFTCYTYMCTA, 7.15 ± 0.055.
With QISVNQIY, the amyloid nucleation score result is “inactive”.
To TFVVELS belongs -1.64 ± 2.4; to KDTQCHIARATRRGVRGNVF, -0.48 ± 1.1.
In turn, GPRHYKVFHSYSAFGGYSVC came in with an amyloid nucleation score of 1.01 ± 0.81.
To RFDVSMRYLSRSDVYDICAR belongs 0.177 ± 0.59.
To VGYHFMYSMSAFVASWRSWG belongs -0.482 ± 0.88; to VCTCFSSWAWEVNF, 3.28 ± 0.083.
In turn, NLSIYIYSNNLLLNVF returned an amyloid nucleation score of 6.194 ± 0.052.
To NTKELVYKMGCGVRYHGKWG belongs 1.28 ± 0.71; to YCWRVSHLGNGRYRLSLSFG, “inactive”.
RLRTNVLSNRVGDPIMTSHV came in with an amyloid nucleation score of 0.158 ± 0.54.
To LEVYGQCDRVHCHSSR belongs -0.276 ± 0.5; to FTRQLWYMSICRYFQLPTFY, 1.95 ± 0.56.
To LMMQRERPFRLYL belongs -1.34 ± 1.6; to WISEYGWFRIKFAWAAYGYR, -0.023 ± 0.72.
Turning to AIRMLSISCNFMVVIL, the amyloid nucleation score was found to be 0.837 ± 0.93.
As for NYASKLYFFLVVMSRFNRKG, the figure is -0.115 ± 1.7.
Turning to SIKFIRTYWWITNSVDKFV, the amyloid nucleation score result is “inactive”.
As for ILGQYGALYSIGTHWFLFVI, the figure is -0.755 ± 0.37.
Regarding IGQGFNCIR, the amyloid nucleation score is -0.083 ± 1.4.
As for LCAFLPVRTVKLCAFRIFDR, the figure is -1.06 ± 0.85; as for VVVVDDHDDVALSFIHTMSR, 0.164 ± 0.43; as for LSNFDRWKTSTVWNSGWFAA, -0.149 ± 1.3.
To LVAFRYLRSGSSRLKFSVLF belongs -0.787 ± 0.48.
To IARAVSSESASVWVKDT belongs -1.62 ± 2.7; to AGKHLGNNIRYILVYGESFR, -1.09 ± 0.85; to VTNYGYDLFVLILDGAMNLS, 0.407 ± 0.51.
Substance DWVLTGGRIWK displayed an amyloid nucleation score of -0.803 ± 0.54.
Substance LKLYLYTLECTFDELDYGD came in with an amyloid nucleation score of 0.161 ± 0.41.
As for YVPGSRLRPYLIQSFNNSLY, the figure is 2.81 ± 0.19; as for SDAGARKIIFCFEIITQHPV, -0.235 ± 0.42; as for TKYCFPFNFQGSLHQWRRRF, 0.972 ± 0.52.
RYSYFSSASCLRYRAPKGRG showed an amyloid nucleation score of 0.098 ± 0.32.
To IRRAENLFIRYSHR belongs 0.855 ± 0.58; to IRTKILLLHKNQKTVVKGLG, 0.073 ± 1.5; to WCSKYCMMPSFPTMSRPVPL, -0.426 ± 0.44.
As for PSTTLFWLVMRKHILQHTRR, the figure is -0.215 ± 0.28; as for EGYPTMSMNSRS, 0.716 ± 0.44.
To ALRFFWDPFIDG belongs 0.388 ± 0.81; to SGAPESYGDTNRRIVSSCFL, “inactive”; to TDIFCP, -1.47 ± 1.7.
As to RYLIPTYF, the amyloid nucleation score is -1.76 ± 0.57.
As for KKRPRYRRWTS, the figure is 0.578 ± 0.52.
To LTGRCPFVGLRLEGHLFLTG belongs -0.169 ± 0.81; to CKHVETK, -0.535 ± 1.4.
As for NYRQHHKTSRVLRLDVGTEP, the figure is -0.252 ± 0.3.
Consider SSTFCVAQYQSYWLCEVKWV, for which the amyloid nucleation score turned out to be 0.086 ± 1.4.
As for KNKVTFKVG, the figure is 0.22 ± 0.3; as for VSDRRTGVLRIHCNFKVGLS, 1.89 ± 0.16.
For RTDLGVRIKF, the amyloid nucleation score stood at 0.77 ± 0.55.
To HSSAEIMPGHISGTWGLCDK belongs -0.62 ± 0.87; to HEKDWLTSVCFISELSTFNN, 0.709 ± 0.65.
As for GIWPLGFGKFGSIFRFANVR, the figure is 0.939 ± 0.6.
To GDDLQFT belongs 1.88 ± 0.69; to RGELAVRKPG, 0.402 ± 0.28; to ILWLVRSGVSYQQGGDSTPV, 0.919 ± 0.28.
With NVTFHSRSGV, the amyloid nucleation score was -0.316 ± 0.84.
As to VKMYRAFIQGYGSLDRRQFP, the amyloid nucleation score was determined as 0.45 ± 0.42.
As for AILFLFFN, the figure is 2.66 ± 0.14; as for VWFIVLSRGQFHICFYGQG, -1.32 ± 2.7.
Substance SDFTIINFQYFLASCCTGYV returned an amyloid nucleation score of 7.602 ± 0.048.
As for TGKNSC, the figure is 3.44 ± 0.099; as for SGIRLM, -1.32 ± 1.8.
As for YQKDWFDMHEYYRPM, the figure is 1.42 ± 0.64.
AGMDVDSLYNRYGYGLEVG had an amyloid nucleation score of -0.512 ± 0.81.
To HPALKWLCPGIERLCLAWSG belongs 0.818 ± 0.61; to PNIRHYVYNHN, “inactive”; to NSKRTGASLRIELRLQFRKR, -0.215 ± 0.39.
To MQGFHSW belongs “inactive”; to MRPPGNPGWWVRRKARWDPG, -0.506 ± 1; to CMLSCFSDRAWIMQRSVCAC, 0.879 ± 0.65.
Regarding ICHCGRHAVHRRHTCHWTLG, the amyloid nucleation score entry is “inactive”.
To VLARNRWRRKWRHTRGWVRG belongs 0.157 ± 1.4; to SSSWTTCY, 2.15 ± 0.1; to VEFGSHVFYLKGRSDKAKYL, -0.283 ± 0.45.
To LPFVDLKFL belongs 0.374 ± 0.28; to VGWTALVQALGNGTQHGVVT, 0.394 ± 0.78; to QELICMGSEYVFPNWTSFRA, -0.412 ± 0.49.
